The target in assay [1] is T1, cynomolgus monkey Siglec15-his protein (cynomolgus monkey).
T1 construct: In house made; also called Cynomolgus Siglec15-his; cynomolgus Siglec15
T1 chain: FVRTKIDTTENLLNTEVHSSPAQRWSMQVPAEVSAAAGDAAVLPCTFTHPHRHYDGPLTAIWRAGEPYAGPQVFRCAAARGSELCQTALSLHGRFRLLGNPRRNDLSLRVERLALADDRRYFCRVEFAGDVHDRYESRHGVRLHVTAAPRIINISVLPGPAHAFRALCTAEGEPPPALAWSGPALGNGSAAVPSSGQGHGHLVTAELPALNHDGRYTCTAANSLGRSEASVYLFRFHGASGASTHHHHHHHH
Description: indirect ELISA on coated cynomolgus Siglec15-his. On the procedure: The anti-Siglec15 antibodies' cross-reactions to cynomolgus or mouse Siglec15 proteins were measured. Briefly, 96-well micro plates were coated with 100 μl of 2 μg/ml cynomolgus Siglec15-his protein (in house made with SEQ ID NO: 21), or 2 μg/ml mouse Siglec15-his protein (in house made with SEQ ID NO: 22) in carbonate/bicarbonate buffer (pH 9.6) for 2 hours at 37° C. ELISA plates were washed once with wash buffer (PBS+0.05% v/v Tween-20, PBST) and then blocked with 200 μl/well blocking buffer (5% w/v non-fatty milk in PBST) overnight at 4° C. Plates were washed 4 times and incubated with 100 μl serially diluted anti-Siglec15 antibodies of the disclosure or controls (starting at 66.7 nM, 5-fold serial dilution in PBST with 2.5% w/v non-fatty milk) for 40 minutes at 37° C. […] The reaction was stopped 4 minutes later at room temperature with 50 μl 1M H₂SO₄, and the absorbance of each well was read on a microplate reader using dual wavelength mode with 450 nm for TMB and 630 nm as the reference wavelength, then the OD (450-630) values were plotted against antibody concentration. Data was analyzed using Graphpad Prism software and EC₅₀ values were reported.
In general terms: An ELISA detects its analyte on a solid surface through an enzyme-linked reagent.

In assay [2] the target is T2, recombinant human Siglec15-his protein (human, UniProt Q6ZMC9 20-263).
T2 construct: In house made; Biotin-labeled in the capture ELISA
T2 sequence: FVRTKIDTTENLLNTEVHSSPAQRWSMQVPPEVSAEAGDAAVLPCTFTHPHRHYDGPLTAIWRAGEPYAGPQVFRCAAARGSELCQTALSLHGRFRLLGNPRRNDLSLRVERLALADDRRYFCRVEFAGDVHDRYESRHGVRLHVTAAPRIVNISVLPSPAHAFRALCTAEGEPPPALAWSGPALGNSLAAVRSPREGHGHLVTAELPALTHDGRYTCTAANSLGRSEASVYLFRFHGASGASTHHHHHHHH
Description: capture ELISA, captured antibody, biotin-labeled human Siglec15-his in solution. On the procedure:
Briefly, 96-well plates were coated with 100 μl of 2 μg/ml AffiniPure Goat Anti-Human IgG F(ab′)₂ fragment specific (Jackson Immuno Research, Cat #109-005-097) in PBS for 2 hours at 37° C. Plates were washed once with wash buffer (PBS+0.05% v/v Tween-20, PBST) and then blocked with 200 μl blocking buffer (5% w/v non-fatty milk in PBST) overnight at 4° C. Plates were washed 4 times and respectively incubated with 100 μl serially diluted anti-Siglec15 antibodies of the disclosure, the benchmark and hIgG (human immunoglobulin (pH4) for intravenous injection, Hualan Biological Engineering Inc.), 5-fold dilution in 2.5% w/v non-fatty milk in PBST starting at 66.7 nM, for 40 minutes at 37° C., and then washed 4 times again. […] The reaction was stopped in 4 minutes at room temperature with 50 μl/well 1M H₂SO₄, and the absorbance of each well was read on a microplate reader using dual wavelength mode with 450 nm for TMB and 630 nm as the reference wavelength, then the OD (450-630) values were plotted against antibody concentration. Data was analyzed using Graphpad Prism software and EC₅₀ values were reported.

For assay [3], the target named is T3, human Siglec15-Fc protein (human).
T3 construct: In house made; also called recombinant human Siglec15 protein with human IgG1 Fc at the C-terminus
Description: competitive ELISA: coated human Siglec15-Fc, blocked ligand biotin-labeled human LRRC4C-Fc. On the procedure:
Serially diluted anti-Siglec15 antibodies or the controls (starting at 66.67 nM with a 5-fold serial dilution) in PBST with 2.5% w/v non-fatty milk were added to the Siglec15-Fc bound plates, 100 μl per well, and incubated with the human Siglec15-Fc protein at 37° C. for 40 minutes. Plates were washed 4 times again using wash buffer, then added and incubated for 40 minutes at 37° C. with 100 μl/well 290 ng/ml biotin-labeled human LRRC4C-Fc protein (prepared in-house with SEQ ID NO: 23). Plates were washed again using wash buffer. Thereafter, the plates were added with 100 μl/well streptavidin conjugated HRP (1:5000 dilution in PBST buffer, Jackson Immunoresearch, Cat #016-030-084) and incubated for 40 minutes at 37° C. Plates were washed again using wash buffer. Finally, TMB was added and the reaction was stopped using 1M H₂SO₄, and the absorbance of each well was read on a microplate reader using dual wavelength mode with 450 nm for TMB and 630 nm as the reference wavelength, then the OD (450-630) values were plotted against antibody concentration. Data was analyzed using Graphpad Prism software and IC₅₀ values were reported.

This note sets out measurements from patent US20230106715A1 (BIOSION, published 2023).

T3 sequence (chain, as listed by the source limits assumed): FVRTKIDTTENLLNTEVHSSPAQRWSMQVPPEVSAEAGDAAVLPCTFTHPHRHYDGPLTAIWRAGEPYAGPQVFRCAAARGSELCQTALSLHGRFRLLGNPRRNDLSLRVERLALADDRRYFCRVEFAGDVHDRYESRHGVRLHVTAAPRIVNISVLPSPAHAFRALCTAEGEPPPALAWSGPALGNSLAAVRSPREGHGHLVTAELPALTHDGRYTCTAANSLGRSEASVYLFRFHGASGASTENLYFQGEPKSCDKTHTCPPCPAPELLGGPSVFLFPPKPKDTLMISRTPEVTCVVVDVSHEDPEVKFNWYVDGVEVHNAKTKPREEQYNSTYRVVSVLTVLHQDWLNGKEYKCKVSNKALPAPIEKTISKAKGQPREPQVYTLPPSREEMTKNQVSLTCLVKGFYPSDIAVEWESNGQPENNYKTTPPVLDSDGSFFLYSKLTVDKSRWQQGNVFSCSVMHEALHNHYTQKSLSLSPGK

B1: anti-Siglec15 benchmark (ch5G12) (antibody, human IgG1, kappa, V domains shown)
VH: QVQLQQPGAELVKPGASVKMSCKASGYTFTSYWITWVIQRPGQGLEWIGDIYCGSDTMHYNEKFKNKATLTVDTSSSTAYMQLSSLTSEDSAVYYCARWWDYGSSYDYFDYWGQGTTLTVSS
VL: DIKMTQSPSSMYASLGERVTITCKASQDINSYLSWFQQKPGKSPKTLIYRANRLVDGVPSRFSGSGSGQDYSLTISSLEYEDMGIYYCLQYDEFPYTFGGGTKLEIKR
notes: ch5G12 (US 20190202912A1); also called BM; Siglec15-ch5G9
As for B1, the EC50 (usually the concentration needed to bring the measured effect to its halfway point) in assay [1] came to 0.461 nM; in assay [2], 2.35 nM. In assay [3], the IC50 (as a rule, the concentration at which inhibition is half-maximal) was found to be 0.792 nM.
